B1: 10E8.B6 mouse/human chimeric IgG4 (S228P) kappa (antibody, V domains shown)
VH: EVQLQQSGPELMKPGDSVKMSCKASGYTFTDYYMDWVKQSHGKSLEWIGYIYPNIDFTTYNQKFKGKATLTVDKSSNTAYMELHSLTSEDSAVYYCTRRDLPLHGSAYYFDYWGQGTTLTVSS
VL: DIVMSQSPSSLAVSAGEKVTMSCKSSQSLLNSRTRKNYLAWYQQKPGQSPKLLIYWASTRESGVPDRFTGSGSGTDFTLTISSVQAEDLAVYYCKQSYDLFTFGSGTKLEIKR
B2: 5D2.C8 mouse/human chimeric IgG4 (S228P) kappa (antibody, V domains shown)
VH: EVKLVESGGGLVKPGGSLKLSCAVSGFTFSNSAMSWVRQTPAKRLEWVAYISISGDNTYYPDSVKGRFTISRDNAKNTLYLQMSSLRSEDTAMYYCARRGYDYDGFTHWGQGTLVTVSA
VL: DILLTQSPAILSVSPGERVSFSCRASQNIGTSIHWYQQRTNGSPRLLIKYASQSISGIPSRFSGSGSGTDFTLSINSVESEDIADYYCQQSYSWPLTFGTGTQLELKR
B3: 14F8.H6 mouse/human chimeric IgG4 (S228P) kappa (antibody, V domains shown)
VH: EVHLVESGGALVKPGGSLKLSCTASGFTFSNSVMSWIRQTPEKRLEWVATIGSGGTYIYYPDSVKGRFTISRDNSKNTLFLQMTSLRSEDTALYYCARHIYGYDVVDYWGQGTTLTVST
VL: DIVMTQSHRFMSTSVGDRVSITCKASHDVSNVVAWYQQKPGQSPELLIYSASYRYTGVPARFTGSGSGTDFTFTISSVQAEDLAVYFCQQHFTTPLTFGAGTSLEVRR
B4: 1H7.C7 mouse/human chimeric IgG4 (S228P) kappa (antibody, V domains shown)
VH: EVQLVESGGGLVMPGGSRRLSCAASGFTFSDSGMYWVRQAPEKGLEWIAYISSGSDTLYYAATVKGRFTISRDNAKNTLFLQMTSLRSEDTAIYYCAKRNFYGYDVMDYWGQGTSVTVSS
VL: DIVMTQSHKFMSTSVGDRVSITCKASQDVSNVVAWYQQKPGQSPKLLIYSASYRYTGVPDRFAGSGSGTDFTFTISSVQAEDLAVYYCQQHYSTPWTFGGGTKLEIKR
B5: 9A10.C4 mouse/human chimeric IgG4 (S228P) kappa (antibody, V domains shown)
VH: EVQLVESGGALVQPGGSLKLSCVASGFSFSNCVMSWVRQSPEKRLEWVATIGSDGSYSYYQDNVKGRFTVSRDNAKNTLYLQMSSLGSEDTALYYCGRHIYGYDVVDYWGQGTSLTVSS
VL: B4 VL with S20T, Y36F, Y55F, T56G, A63T, S93D, W96L, G100T, K103T, I106L
B6: 13E11.A4 mouse/human chimeric IgG4 (S228P) kappa (antibody)
heavy: not shown
light: DIVMTQSHKFMSTSVGDNVSITCKASQYVSNTVAWYQQKPGQSPKLLIYSASYRNTGVPDRFTGSGSGTNFTFTISNMQAEDLAFYYCQQHYTSPLTFGAGTKLELKRTVAAPSVFIFPPSDEQLKSGTASVVCLLNNFYPREAKVQWKVDNALQSGNSQESVTEQDSKDSTYSLSSTLTLSKADYEKHKVYACEVTHQGLSSPVTKSFNRGEC
B7: 1C6.D6 mouse/human chimeric IgG4 (S228P) kappa (antibody, V domains shown)
VH: QVQLQQPGAEMVRPGTSVKLSCKASGYTFTSYWMHWVKQRPGQGLEWIGKIDPSHNKTHYIQKFEDKATLTVDKSSSTAYMHLNSLTSEDSAVYYCVTWDGDFLYWGQGTLVTVSA
VL: NIVLTQSPASLTVSLGQRATISCRASESVDSYGNSFMHWYQQKPGQPPKLLIYITSNLQSGVPARFSGGGSRTDFTLTIDPVEADDAATYYCQQNNEDPWTFGGGTKLEIKR
notes: also called 1C6.D6b

This is an account of results in patent publication US20230348603A1 (VERSEAU THERAPEUTICS, published 2023).

Positions count from the first letter of the chain named. Numbers in names are those of the source.

The first experiment addresses T1, Human VSIG4-L-Fc (human).
T1 construct: also called hVSIG4-L-Fc; hVSIG4-L
Briefly: BLI cross-blocking on hVSIG4-L-Fc, competitor 14C05 first.
For the molecule B1, the “binding signal (nm shift)” value was 0.11 nm.
Same read-out and setting: the value for B2 was 0.12 nm; that for B3 was 0.15 nm.
For the molecule B4, the “binding signal (nm shift)” value amounted to 0.13 nm.
As for B5, the “binding signal (nm shift)” value turned out to be 0.14 nm.
On to B6, for which the “binding signal (nm shift)” value amounted to 0.24 nm.
As for B7, the “binding signal (nm shift)” value was found to be 0.59 nm.

The target of another experiment is T1, Human VSIG4-L-Fc. Briefly: BLI cross-blocking on hVSIG4-L-Fc, competitor 12A12 first.
B1: the “binding signal (nm shift)” value was determined as 0.06 nm.
Regarding B2, the “binding signal (nm shift)” value was determined as 0.07 nm.
Same read-out and setting: then B3, with 0.1 nm; and B4, with 0.08 nm.
On to B5, for which the “binding signal (nm shift)” value is 0.1 nm.
In the case of B6, the “binding signal (nm shift)” value was 0.07 nm.
On the same count and under the same terms, then B7, with 0.08 nm.
